Test results from IntAct's records for PubMed 17158164.

B1: TATA-box-binding protein (Homo sapiens), P20226 (parent)
chain: MDQNNSLPPYAQGLASPQGAMTPGIPIFSPMMPYGTGLTPQPIQNTNSLSILEEQQRQQQQQQQQQQQQQQQQQQQQQQQQQQQQQQQQQQQQQQAVAAAAVQQSTSQQATQGTSGQAPQLFHSQTLTTAPLPGTTPLYPSPMTPMTPITPATPASESSGIVPQLQNIVSTVNLGCKLDLKTIALRARNAEYNPKRFAAVIMRIREPRTTALIFSSGKMVCTGAKSEEQSRLAARKYARVVQKLGFPAKFLDFKIQNMVGSCDVKFPIRLEGLVLTHQQFSSYEPELFPGLIYRMIKPRIVLLIFVSGKVVLTGAKVRAEIYEAFENIYPILKGFRKTT
partner: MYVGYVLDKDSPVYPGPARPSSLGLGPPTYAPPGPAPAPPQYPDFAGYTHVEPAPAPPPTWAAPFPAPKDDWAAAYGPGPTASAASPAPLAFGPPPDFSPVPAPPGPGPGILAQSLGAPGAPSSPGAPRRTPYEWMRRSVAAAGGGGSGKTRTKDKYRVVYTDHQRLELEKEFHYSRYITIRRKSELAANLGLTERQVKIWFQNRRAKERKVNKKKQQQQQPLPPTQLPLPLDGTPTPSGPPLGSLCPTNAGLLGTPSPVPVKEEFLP

Variants of: B1
Conditions: with cdx1_mouse Cdx1, P18111

Row | effect of a mutation on the interaction | Variant
1 | with no effect | MDQNNSLPPYAQGLASPQGAMTPGIPIFSPMMPYGTGLTPQPIQNTNSLSILEEQQRQQQQQQQQQQQQQQQQQQQQQQQQQQQQQQQQQQQQQQAVAAAAVQQSTSQQATQGTSGQAPQLFHSQTLTTAPLPGTTPLYPSPMTPMTPITPATPASESSGIVPQLQNIVSTVNLGCKLDLKTIALRARNAEYNPKRFAAVIMRIREPRTTALIFSSGKMVCTGAKSEEQSRLAARKYARVVQKLGFPAKFLDFKIQNMVGSCDVKFPIRLEGLVLTHQQFSSYEPELFPGLFYRMIKPRITLVIFVSGKVVLTGAKVRAEIYEAFENIYPILKGFRKTT [I292F;V301T;L303V]
